Experimental data from PMC6333426.

Molecular target: Tsx nucleoside transporter of E. coli, on target cells (E. coli) (UniProt P0A927)
Assay: flow cytometry on cells

Sequence of UniProt P0A927 (P0A927 23-294): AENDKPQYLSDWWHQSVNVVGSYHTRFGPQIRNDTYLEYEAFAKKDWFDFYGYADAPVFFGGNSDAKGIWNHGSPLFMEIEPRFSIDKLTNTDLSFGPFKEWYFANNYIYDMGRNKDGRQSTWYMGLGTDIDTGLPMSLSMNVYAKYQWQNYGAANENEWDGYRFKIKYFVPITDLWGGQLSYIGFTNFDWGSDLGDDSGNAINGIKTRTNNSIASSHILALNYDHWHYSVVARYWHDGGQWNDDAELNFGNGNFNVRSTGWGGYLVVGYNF

## CdiA^STECO31 (CdiA from Escherichia coli STEC_O31), wild type, A0A1S4NYE3 33-3253
  percent of target cells bound: 80%
